According to paper PMC3325594 (International Journal of Toxicology, 2012):

How the values were obtained:
[1] = system: insulin receptor (IR) signaling; conditions: cited from earlier work
[2] = system: mammalian cell lines; conditions: cited from earlier work
[3] = system: rats; conditions: 12-month toxicity study; cited from earlier work
[4] = system: insulin-like growth factor 1 receptor (IGF-1R); conditions: in vitro; cited from earlier work
[5] = system: insulin receptor (IR); conditions: in vitro; cited from earlier work
[6] = system: mammary gland of young female rats; conditions: 26-week toxicity study; cited from earlier work
[7] = system: female mice; experiment: 2-year carcinogenicity study, survival rates in female mice; type: in vivo; conditions: 12.5 IU/kg
[8] = system: female rats; experiment: 2-year carcinogenicity study, survival rates in female rats; type: in vivo; conditions: 5 IU/kg

## [Gly^A21, des-Thr^B30]-human insulin [M2]
[1]
  In vitro metabolic and mitogenic profiles: comparable with human insulin

## [Asp^B10] insulin
[2]
  Proliferation rate in mammalian cell lines compared to regular human insulin: higher proliferation rate
[3]
  Incidence of mammary tumors: higher incidence of mammary tumors
[4]
  Affinity toward IGF-1R compared to regular human insulin: higher affinity
[5]
  Affinity toward the insulin receptor (IR) compared to regular human insulin: higher affinity
  Occupancy time at the IR compared to regular human insulin: prolonged occupancy time

## insulin detemir
[6]
  Proliferative effect in the mammary gland: modest proliferative effect

## [Gly^A21] human insulin [M1]
[1]
  In vitro metabolic and mitogenic profiles: comparable with human insulin

## NPH: neutral protamine Hagedorn (NPH) insulin, comparator group
[7]; week 80
  Survival rate: 56%
[7]; week 81
  Survival rate: 56%
[7]; week 82
  Survival rate: 56%
[7]; week 85
  Survival rate: 50%
[7]; week 88, of 50 initial animals
  Survival, animals alive: 22 n
[7]; week 89, of 50 initial animals
  Survival, animals alive: 22 n
[8]; week 80
  Survival rate: 72%
[8]; week 81
  Survival rate: 72%
[8]; week 82
  Survival rate: 72%
[8]; week 83
  Survival rate: 70%
[8]; week 84
  Survival rate: 70%
